B1: ADI-14583 (antibody, V domains shown)
VH: QVQLVQSGAEVKEPGASVKVSCKASGYTFTNYGISWVRQAPGQGLEWLGWISAYNGNIHYAQKVQGRVTMTTDTSTSTGFMELRSLRSDDTAVYYCAREPPVIAAGDFQHWGQGTLVTVSS
VL: ETTLTQSPLSLPVTLGQPASISCRSSQSLVHSNGNTYLSWFQQRPGQSPRRLIYRVSNRDSGVPDRFSGSGSGTDFTLKISRVEAEDVGLYYCMQGTHWPPDFGQGTRLEIK
B2: ADI-41350 (antibody, V domains shown)
VH: EVQLVESGAGLVQPGGSLRLSCAASGFTFSTYAVSWVRQAPGKGLEWVSAISGSGASTYFADSVKGRFTISRDNSKNTLYLQMNSLRAEDTAVYYCAKARLELRPYYYGMDVWGQGTTVTVSS
VL: QPVLTQPASVSGSPGQSITISCTGTSSDVGGYNFVSWYQQHPGKAPKLIIYEVSNRPSGVSNRFSGSKSGNTASLTISGLQAEDEADYYCSSSTLSTTYVFGTGTKVTVL
notes: IgG1
B3: ADI-14334 (antibody, V domains shown)
VH: EVQLVESGGGLVKPGGSLRLSCAASGVTVSSYYMTWVRQAPGKGLEFISDISSSSTYTNYADSVKGRFTISRDNAKSSLYLQMNNLRAEDTAVYYCARLGITVTGVGYFDLWGRGTLVTVSS
VL: QPGLTQPPSVSGAPGQRVTISCTGSSSNIGAGYDVHWYQQLPGTAPKLLIHDNNNRPSGVPDRFSGSKSGTSASLAITGLQVEDEADYYCQSYDSSLSNYVFGTGTKLTVL
B4: ADI-20998 (antibody, V domains shown)
VH: QVQLVQSGGGVVQPGRSLRLSCAASGFTLSTYGMHWVRQAPGKGLEWVAVIYYDESNKFYADSVQGRFTISRDDSKNTLFLQMNSLRAEDTAVYYCARESRPRGYSYSDFDSWGQGTLVTVSS
VL: QPGLTQPRSVSGSPGQSVTISCTGTSSDVGTFNYVSWYQQHPGKAPKLMIYDVNQRPSGVPDRFSGSKSGNTASLTISGLQAEDEADYYCCAYAGYYSFGGGTKLTVL
B5: ADI-41842 (antibody, V domains shown)
VH: QVQLVQSGAEVKKPGASVRVSCKASGYTFTHYDINWVRQAPGQGLEWMGWINPNSGDTDYAQKFQGRVTMTVDTSISTAYLDLRSLTSADAAVYYCARGGAYATNGYYIIWFDPWGQGTLVTVSS
VL: DIVVTQSPSSLSASVGDRVTITCRASQSISRYLNWFQKKPGKAPHLLIYAASILQSEVPSRFSGSGSGTDFTLTISSLQPEDFATYYCQQSYNSPYTFGPGTKVDIK
notes: also called Ab 942; Antibody Number 942
B6: ADI-41841 (antibody, V domains shown)
VH: EVQLLESGGGLVKPGGSLRLSCAASGFSFSYYSMNWVRQTPGKGLEWVSSISDRSSYISYADSVKGRFTISRDNAKNSLYLQMNSLRAEDTAVYYCARDQYESYAFDIWGQGTTVTVSS
VL: DIQVTQSPSSLSASVGDRITITCQASQDVGNYLNWYQQKVGKAPKLLIHDASDLETGVPSRFSGSGSGTYFTFTISSLQPEDFATYYCQPYDNLRPVTFGQGTRLEIK
B7: ADI-41818 (antibody, V domains shown)
VH: EVQLVESGGGLVQPGGSLRLSCAASGFTVNTNYMSWVRQAPGKGLEWVSIIYSSGSTSYADSVKGRFTISRDNSENTLYLQMHTLRAEDTAVYYCVRERTPFYYVSSGYWDSWGQGTLVTVSS
VL: EIVLTQSPGTLSLSPGERATLSCRASQSVDSSYLAWYQQKPGQAPRLLIFGASSRATGIPDRFSGSGSGTDFTLTISRLEPEDFAVYYCQQYGFSYTFGQGTKVEIK
B8: ADI-20974 (antibody, V domains shown)
VH: EVQLVESGGGLVKPGGSLRLSCAASGFSFSSYQINWVRQAPGKGLEWVSSISGGSSYTDYADSIKGRFTISRDNAKKSAFLQMKSLRADDTAVYYCARALMATAGGLAFDIWGQGTMVTVSS
VL: QPVLTQPPSVSGAPGQRVTISCTGSGSNIGAGYDVHWYQQVPGTAPKLLILRNTNRPSGVPDRFSGSKSGTSASLAITGLQAEDEADYYCQSYDRSLSVVFGGGTKLTVL
B9: ADI-41406 (antibody, V domains shown)
VH: EVQLVESGGNLVQPGGSLRLSCAASGFTFSSYVMNWVRQAPGKGLEWVSGISGSGGTSYYADSVKGRFTISRDNSNNTLYLQMKSLRAEDTAVYYCAKDPRFQKWLIEGTNWFDSWGQGTLVTVSS
VL: DIQVTQSPSSLSASVGDRVTITCRASQDVSNYLAWFQQKPGTAPKSLIYAASILQSGVPSKFRGSGSGTDFSLTISSLQPEDFATYYCQQYRSFPPTFGGGTKVEIK
notes: IgG1; also called Ab 698
B10: ADI-41361 (antibody, V domains shown)
VH: QVQLQESGGGVVQPGRSLRLSCAASGFAFSDYAMDWVRQAPGKGLEWVAVISFDGSNKFYADSVKGRFTISRDNSENTLFLQMNSLRAEDTAVYYCVRDFVPCSGATCYLPPVYWGRGTLVTVSS
VL: EIVLTQSPATLSVSPGERATLSCRASQSVSSDLAWYQQKPGQAPRLLIYGASTRATGIPARFSGSGSGTEFTLTISRLQSEDFAVYFCQQYNNWPSWTFGQGTKVEIK
notes: IgG1; also called Ab 658
B11: ADI-41817 (antibody, V domains shown)
VH: QVQLVQSGAEVKKPGESLKISCKGPGYSFTTYWIGWVRQMPGKGLEWMGIIYPGDSDTKYSPSFQGQVTITADKSIATAYLQWSRLKASDTAVYYCATVVTYADNIRWFDSWGQGTLVTVSS
VL: QSALTQPASVSGSPGQSITISCTGTSGDVGGYKFVSWYQHHPGKAPKLVIYDVANRPSGVSDRFSGSKSGTTASLTISGLQAEDEADYYCSSYTSSSTYVFGTGTKVTAL
B12: ADI-41814 (antibody, V domains shown)
VH: EVQLLESGPTLVKPTQTLTLTCTFSGFSLSTFGVGVGWIRQPPGKALECLALIYWDDDKRYSPSLKSRLTITRDTSKNQVVLTMTNMDPVDTATYYCAHRRSSTVTTGFFDYWGRGTLVTVSS
VL: QPVLTQPPSVSGAPGQRVTVSCTGNSSNIGAGHGAHWYQQLPGTAPKLLIYGSTDRPSGVPDRFFGSQSGTSASLVITELRAEDEADYYCQSFDSSLSIWVFGGGTKLTVL
notes: also called Ab 921; Antibody Number 921
B13: ADI-20964 (antibody, V domains shown)
VH: QVQLVQSGAEVKKPGASVKVSCKASGYTFTHYGISWVRQAPGQGLEWMGWISAYNGNTNYAQKLQGRVTMTTDTSTSTAYMEVRSLRYDDTAVYYCARDVPVEAATSPEFWGQGTLVTVSS
VL: DIVMTQTPLSLPVTLGQPASISCRSSQSLVYSDGNTYLSWFQQRPGQSPRRLIYKVSNRDSGVPNRFSGSGSGTDFTLKISRVEAEDVGVYYCVQNTHWPAYTFGQGTKVEIK
B14: ADI-41400 (antibody, V domains shown)
VH: EVQLLESGGGLIQPGGSLRLSCAASKFTFSDYEMNWVRQAPGKGLEWLSYISSSGGIMYYADSVKGRFTISRDNAKNSLYLQMNSLRAEDTAVYFCARAGRLLSGLDVWGHGTTVTVSS
VL: EIVLTQSPSTLSASVGDRVTITCRASQSISPWLAWYQQKPGKAPKLLIYRASSLETGVPPRFSGSGSGTEFTLTISSLQPDDFATYYCQHYNSYLYSFGQGTKVEIK
notes: IgG1; also called Ab 693
B15: ADI-41420 (antibody, V domains shown)
VH: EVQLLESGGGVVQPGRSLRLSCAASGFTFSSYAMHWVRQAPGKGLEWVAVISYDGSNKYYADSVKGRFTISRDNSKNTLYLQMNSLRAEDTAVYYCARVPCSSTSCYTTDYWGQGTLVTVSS
VL: QPVLTQPPSVSGSPGQSVTISCTGTSSDVGSYNRVSWYQQPPGTAPKLMIYEVSNRPSGVPDRFSGSKSGNTASLTISGLQAEDEADYYCSSYTSSSPVFGGGTKVTVL
notes: IgG1
B16: ADI-41379 (antibody, V domains shown)
VH: QVQLVQSGAEVKKPGESLKISCKGSGYSFSSFWIGWVRQMPGKGLEWMGIIYPGDSDTRYSPSFKGQVTISADTSISTAYLQWSSLKASDTAMYYCAKSIVGSTGSFDPWGQGTLVTVSS
VL: DIQMTQSPSSLSASVGDRVTITCQASQDISNFLNWYQQKPGKAPKLLIYDASNLRTGVPSRFSGSGSGTEFTFTISSLQPEDIATYYCQQYHDLPPLTFGGGTKVDIK
notes: IgG1

Experiments:
[1] = target: T1, RSV F on RSV subtype A virus (RSV-A2) (Respiratory Syncytial Virus, subtype A, …, UniProt P03420 26-574); experiment: cell-based or functional assay
[2] = target: RSV F on RSV subtype B virus (mKate-RSV B 18537) (Respiratory Syncytial Virus, subtype B, …, UniProt P13843 26-574); experiment: cell-based or functional assay
[3] = target: RSV prefusion F (preF), DS-Cav1 (respiratory syncytial virus, UniProt P03420 26-513); experiment: BLI, IgG on sensor
[4] = target: RSV fusion glycoprotein (RSV F) on RSV-A2 virus (respiratory syncytial virus, UniProt P03420 26-574); experiment: cell-based or functional assay
[5] = target: RSV postfusion F (postF), F deltaFP (respiratory syncytial virus, UniProt P03420 26-513); experiment: BLI, IgG on sensor, 100 nM antigen
[6] = target: T1, RSV F on RSV subtype A virus (RSV-A2); experiment: cell-based or functional assay; remark: listed apart in the source
[7] = target: T2, RSV prefusion F (preF), DS-Cav1 stabilized trimer, subtype A (Respiratory Syncytial Virus, subtype A, UniProt P03420 26-513); experiment: BLI, IgG on anti-human IgG sensors, 100 nM antigen, apparent KD
[8] = target: T3, RSV postfusion F (postF), F ΔFP trimer, subtype A (Respiratory Syncytial Virus, subtype A, UniProt P03420 26-513); experiment: as above
[9] = target: T3, RSV postfusion F (postF), F ΔFP trimer, …; experiment: BLI, IgG (Table 9A)
[10] = target: T2, RSV prefusion F (preF), DS-Cav1 …; experiment: BLI, apparent IgG KD (Table 9A)

Binder	Neutralization - RSV A2 IC50 (pM) [1]	neut IC50 (ug/ml) subtype A (graham) [1]	neut IC50 (ug/ml) subtype B (graham) [2]	binding result [3]	Neutralization IC50 (RSV subtype A) [4]	Kd [5]	Neutralization IC50 (RSV subtype A) [6]	Kd [7]	Kd [8]	also measured
B1	125 pM	0.05 µg/mL	0.06 µg/mL	–	–	–	–	–	–	–
B2	–	–	–	no binding (tested: 100 nM antigen)	> 25 µg/mL	602 pM	–	–	–	–
B3	189 pM	0.05 µg/mL	0.11 µg/mL	–	–	–	–	–	–	–
B4	74 pM	0.03 µg/mL	> 25 µg/mL	–	–	–	–	–	–	–
B5	–	–	–	–	–	–	> 25 µg/mL	717 pM	442 pM	–
B6	–	–	–	–	–	–	0.04 µg/mL	121 pM	265 pM	–
B7	–	–	–	–	–	–	> 25 µg/mL	676 pM	347 pM	–
B8	75.4 pM	0.003 µg/mL	0.09 µg/mL	–	–	–	–	–	–	binding result [9]: no binding; Kd [10]: 290 pM
B9	–	–	–	no binding (tested: 100 nM antigen)	> 25 µg/mL	571 pM	–	–	–	–
B10	–	–	–	no binding (tested: 100 nM antigen)	2.54 µg/mL	383 pM	–	–	–	–
B11	–	–	–	–	–	–	> 25 µg/mL	6940 pM	15800 pM	–
B12	–	–	–	–	–	–	> 25 µg/mL	3390 pM	915 pM	–
B13	162 pM	0.06 µg/mL	0.14 µg/mL	–	–	–	–	–	–	binding result [9]: no binding; Kd [10]: 360 pM
B14	–	–	–	no binding (tested: 100 nM antigen)	> 25 µg/mL	547 pM	–	–	–	–
B15	–	–	–	no binding (tested: 100 nM antigen)	> 25 µg/mL	110000 pM	–	–	–	–
B16	–	–	–	no binding (tested: 100 nM antigen)	> 25 µg/mL	1110 pM	–	–	–	–
